# According to patent publication US20230140797A1 (published 2023):
# Where two headings read alike, the source gives them in different places.
# T1: human FcγRIIa type H extracellular domain with C-terminal His tag (human, UniProt P12318 34-217)
# T1 sequence (looked up): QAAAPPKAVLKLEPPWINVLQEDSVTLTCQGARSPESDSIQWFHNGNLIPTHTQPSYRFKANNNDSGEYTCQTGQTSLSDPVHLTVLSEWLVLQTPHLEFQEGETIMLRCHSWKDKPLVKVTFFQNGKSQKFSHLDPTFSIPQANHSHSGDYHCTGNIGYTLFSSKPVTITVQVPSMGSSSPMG
# T2: human FcγRIIb extracellular domain with C-terminal His tag (human, UniProt P31994 43-217)
# T2 sequence (looked up): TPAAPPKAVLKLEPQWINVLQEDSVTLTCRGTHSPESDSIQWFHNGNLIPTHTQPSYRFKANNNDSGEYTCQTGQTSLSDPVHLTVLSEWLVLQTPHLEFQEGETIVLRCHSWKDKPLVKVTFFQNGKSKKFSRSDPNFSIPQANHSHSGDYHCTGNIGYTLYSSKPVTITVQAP
# T3: human FcγRIIa type R (131Arg) extracellular domain with C-terminal His tag (human, UniProt P12318 34-217)
# T3 sequence (looked up): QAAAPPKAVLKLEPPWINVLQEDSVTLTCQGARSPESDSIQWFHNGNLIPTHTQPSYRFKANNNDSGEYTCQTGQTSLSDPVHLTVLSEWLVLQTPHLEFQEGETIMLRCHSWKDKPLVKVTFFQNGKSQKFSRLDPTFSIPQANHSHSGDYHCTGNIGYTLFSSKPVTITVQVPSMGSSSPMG
# T4: human FcγRIIa type H (131His) extracellular domain with C-terminal His tag (human, UniProt P12318 34-217)
# T4 sequence (looked up): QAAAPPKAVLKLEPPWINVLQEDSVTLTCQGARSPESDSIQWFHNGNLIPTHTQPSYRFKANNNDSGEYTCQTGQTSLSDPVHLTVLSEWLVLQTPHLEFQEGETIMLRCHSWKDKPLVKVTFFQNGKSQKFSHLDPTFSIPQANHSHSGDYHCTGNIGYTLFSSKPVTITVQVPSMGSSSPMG
# What was measured:
# [1] = target: T1, human FcγRIIa type H extracellular …; assay: SPR
# [2] = target: T2, human FcγRIIb extracellular domain with …; assay: ratio of SPR KDs
# [3] = target: T3, human FcγRIIa type R (131Arg) …; assay: SPR
# [4] = target: T2, human FcγRIIb extracellular domain with …; assay: ratio of SPR KDs; remark: listed apart in the source
# [5] = target: T4, human FcγRIIa type H (131His) …; assay: SPR
# [6] = target: human FcγRIIIa type V extracellular domain with C-terminal His tag (human, UniProt P08637 17-208); assay: SPR
# Sequence of human FcγRIIIa type V extracellular domain with C-terminal His tag (P08637 17-208 F176V): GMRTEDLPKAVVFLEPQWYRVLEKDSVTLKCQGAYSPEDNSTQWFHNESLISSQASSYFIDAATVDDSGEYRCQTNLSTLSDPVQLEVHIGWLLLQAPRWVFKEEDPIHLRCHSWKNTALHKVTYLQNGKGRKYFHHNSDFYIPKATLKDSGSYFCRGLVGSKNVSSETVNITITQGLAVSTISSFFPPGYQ
# [7] = target: T2, human FcγRIIb extracellular domain with …; assay: ratio of SPR KDs; remark: listed apart in the source
# [8] = target: T4, human FcγRIIa type H (131His) …; assay: SPR; remark: listed apart in the source
binder,measurement,setting,value
"IL6R-BP204/IL6R-L (antibody, human IgG1, kappa) heavy: QVQLQESGPGLVKPSETLSLTCAVSGHSISHDHAWSWVRQPPGEGLEWIGFISYSGITNYNPSLQGRVTISRDNSKNTLYLQMNSLRAEDTAVYYCARSLARTTAMDYWGEGTLVTVSSASTKGPSVFPLAPSSKSTSGGTAALGCLVKDYFPEPVTVSWNSGALTSGVHTFPAVLQSSGLYSLSSVVTVPSSSLGTQTYICNVNHKPSNTKVDKKVEPKSCDKTHTCPPCPAPDLLGGDSVFLFPPKPKDTLMISRTPEVTCVVVDVSHEDGEVKFNWYVDGVEVHNAKTKPREEQYNSTYRVVSVLTVLHQDWLNGKEYKCKVSNAALPRPIEKTISKAKGQPREPQVYTLPPSRDELTKNQVSLTCLVKGFYPSDIAVEWESNGQPENNYKTTPPVLDSDGSFFLYSKLTVDKSRWQQGNVFSCSVMHEALHNHYTQESLSLSP light: not shown",Kd,[1],2100 nM
"IL6R-BP483/IL6R-L (antibody, human IgG1, kappa) heavy: QVQLQESGPGLVKPSETLSLTCAVSGHSISHDHAWSWVRQPPGEGLEWIGFISYSGITNYNPSLQGRVTISRDNSKNTLYLQMNSLRAEDTAVYYCARSLARTTAMDYWGEGTLVTVSSASTKGPSVFPLAPSSKSTSGGTAALGCLVKDYFPEPVTVSWNSGALTSGVHTFPAVLQSSGLYSLSSVVTVPSSSLGTQTYICNVNHKPSNTKVDKKVEPKSCDKTHTCPPCPAPDLLGDDSVFLFPPKPKDTLMISRTPEVTCVVVDLAEEDGEVKFNWYVDGVEVHNAKTKPREEQYNSTYRVVSVLTVLHQDWLNGKEYKCKVSNKALPAPIEKTISKAKGQPREPQVYTLPPSRDELTKNQVSLTCLVKGFYPSDIAVEWESNGQPENNYKTTPPVLDSDGSFFLYSKLTVDKSRWQQGNVFSCSVMHEALHNHYTQESLSLSP light: not shown",KD (IIaR)/KD (IIb),[2],16
same,Kd,[3],13 nM
same,KD (IIaH)/KD (IIb),[4],230
"IL6R-BP487/IL6R-L (antibody, human IgG1, kappa) heavy: QVQLQESGPGLVKPSETLSLTCAVSGHSISHDHAWSWVRQPPGEGLEWIGFISYSGITNYNPSLQGRVTISRDNSKNTLYLQMNSLRAEDTAVYYCARSLARTTAMDYWGEGTLVTVSSASTKGPSVFPLAPSSKSTSGGTAALGCLVKDYFPEPVTVSWNSGALTSGVHTFPAVLQSSGLYSLSSVVTVPSSSLGTQTYICNVNHKPSNTKVDKKVEPKSCDKTHTCPPCPAPDLLGDDSVFLFPPKPKDTLMISRTPEVTCVVIDVAEEDGEVKFNWYVDGVEVHNAKTKPREEQYNSTYRVVSVLTVLHQDWLNGKEYKCKVSNKALPRPIEKTISKAKGQPREPQVYTLPPSRDELTKNQVSLTCLVKGFYPSDIAVEWESNGQPENNYKTTPMVLDSDGSFFLYSKLTVDKSRWQQGNVFSCSVMHEALHNHYTQESLSLSP light: not shown",KD (IIaR)/KD (IIb),[2],33.3
same,Kd,[5],40 nM
"IL6R-BP480/IL6R-L (antibody, human IgG1, kappa) heavy: QVQLQESGPGLVKPSETLSLTCAVSGHSISHDHAWSWVRQPPGEGLEWIGFISYSGITNYNPSLQGRVTISRDNSKNTLYLQMNSLRAEDTAVYYCARSLARTTAMDYWGEGTLVTVSSASTKGPSVFPLAPSSKSTSGGTAALGCLVKDYFPEPVTVSWNSGALTSGVHTFPAVLQSSGLYSLSSVVTVPSSSLGTQTYICNVNHKPSNTKVDKKVEPKSCDKTHTCPPCPAPDLLGDDSVFLFPPKPKDTLMISRTPEVTCVVVDLSEDDGEVKFNWYVDGVEVHNAKTKPREEQYNSTYRVVSVLTVLHQDWLNGKEYKCKVSNKALPAPIEKTISKAKGQPREPQVYTLPPSRDELTKNQVSLTCLVKGFYPSDIAVEWESNGQPENNYKTTPPVLDSDGSFFLYSKLTVDKSRWQQGNVFSCSVMHEALHNHYTQESLSLSP light: not shown",Kd,[6],40000 nM
"IL6R-BP488/IL6R-L (antibody, human IgG1, kappa) heavy: QVQLQESGPGLVKPSETLSLTCAVSGHSISHDHAWSWVRQPPGEGLEWIGFISYSGITNYNPSLQGRVTISRDNSKNTLYLQMNSLRAEDTAVYYCARSLARTTAMDYWGEGTLVTVSSASTKGPSVFPLAPSSKSTSGGTAALGCLVKDYFPEPVTVSWNSGALTSGVHTFPAVLQSSGLYSLSSVVTVPSSSLGTQTYICNVNHKPSNTKVDKKVEPKSCDKTHTCPPCPAPDLLGDDSVFLFPPKPKDTLMISRTPEVTCVVIDVAEEDGEVKFNWYVDGVEVHNAKTKPREEQDNSTYRVVSVLTVLHQDWLNGKEYKCKVSNKALPRPIEKTISKAKGQPREPQVYTLPPSRDELTKNQVSLTCLVKGFYPSDIAVEWESNGQPENNYKTTPPVLDSDGSFFLYSKLTVDKSRWQQGNVFSCSVMHEALHNHYTQESLSLSP light: not shown",Kd,[5],1800 nM
same,KD (IIaH)/KD (IIb),[4],865
"IL6R-BP496/IL6R-L (antibody, human IgG1, kappa) heavy: QVQLQESGPGLVKPSETLSLTCAVSGHSISHDHAWSWVRQPPGEGLEWIGFISYSGITNYNPSLQGRVTISRDNSKNTLYLQMNSLRAEDTAVYYCARSLARTTAMDYWGEGTLVTVSSASTKGPSVFPLAPSSKSTSGGTAALGCLVKDYFPEPVTVSWNSGALTSGVHTFPAVLQSSGLYSLSSVVTVPSSSLGTQTYICNVNHKPSNTKVDKKVEPKSCDKTHTCPPCPAPDLLGDDSVFLFPPKPKDTLMISRTPEVTCVVIDVAEEDGEVKFNWYVDGVEVHNAKTKPREEQDNSTYRVVSVLTVLHQDWLNGKEYKCKVSNKALPAPIEKTISKAKGQPREPQVYTLPPSRDELTKNQVSLTCLVKGFYPSDIAVEWESNGQPENNYKTTPPVLDSDGSFFLYSKLTVDKSRWQQGNVFSCSVMHEALHNHYTQESLSLSP light: not shown",KD (IIb) of parent polypeptide/KD (IIb) of altered polypeptide,[7],166
"IL6R-BP492/IL6R-L (antibody, human IgG1, kappa) heavy: QVQLQESGPGLVKPSETLSLTCAVSGHSISHDHAWSWVRQPPGEGLEWIGFISYSGITNYNPSLQGRVTISRDNSKNTLYLQMNSLRAEDTAVYYCARSLARTTAMDYWGEGTLVTVSSASTKGPSVFPLAPSSKSTSGGTAALGCLVKDYFPEPVTVSWNSGALTSGVHTFPAVLQSSGLYSLSSVVTVPSSSLGTQTYICNVNHKPSNTKVDKKVEPKSCDKTHTCPPCPAPELLGGDSVFLFPPKPKDTLMISRTPEVTCVVIDVAEEDGEVKFNWYVDGVEVHNAKTKPREEQYNSTYRVVSVLTVLHQDWLNGKEYKCKVSNKALPAPIEKTISKAKGQPREPQVYTLPPSRDELTKNQVSLTCLVKGFYPSDIAVEWESNGQPENNYKTTPPVLDSDGSFFLYSKLTVDKSRWQQGNVFSCSVMHEALHNHYTQESLSLSP light: not shown",Kd,[6],30000 nM
same,Kd,[8],15000 nM
same,KD (IIaR)/KD (IIb),[2],30.3
same,KD (IIaH)/KD (IIb),[4],670
"IL6R-BP209/IL6R-L (antibody, human IgG1, kappa) heavy: QVQLQESGPGLVKPSETLSLTCAVSGHSISHDHAWSWVRQPPGEGLEWIGFISYSGITNYNPSLQGRVTISRDNSKNTLYLQMNSLRAEDTAVYYCARSLARTTAMDYWGEGTLVTVSSASTKGPSVFPLAPSSKSTSGGTAALGCLVKDYFPEPVTVSWNSGALTSGVHTFPAVLQSSGLYSLSSVVTVPSSSLGTQTYICNVNHKPSNTKVDKKVEPKSCDKTHTCPPCPAPELLGDDSVFLFPPKPKDTLMISRTPEVTCVVVDVSDEDGEVKFNWYVDGVEVHNAKTKPREEQYNSTYRVVSVLTVLHQDWLNGKEYKCKVSNAALPRPIEKTISKAKGQPREPQVYTLPPSRDELTKNQVSLTCLVKGFYPSDIAVEWESNGQPENNYKTTPPVLDSDGSFFLYSKLTVDKSRWQQGNVFSCSVMHEALHNHYTQESLSLSP light: not shown",Kd,[1],1000 nM
"IL6R-BP491/IL6R-L (antibody, human IgG1, kappa) heavy: QVQLQESGPGLVKPSETLSLTCAVSGHSISHDHAWSWVRQPPGEGLEWIGFISYSGITNYNPSLQGRVTISRDNSKNTLYLQMNSLRAEDTAVYYCARSLARTTAMDYWGEGTLVTVSSASTKGPSVFPLAPSSKSTSGGTAALGCLVKDYFPEPVTVSWNSGALTSGVHTFPAVLQSSGLYSLSSVVTVPSSSLGTQTYICNVNHKPSNTKVDKKVEPKSCDKTHTCPPCPAPELLGDDSVFLFPPKPKDTLMISRTPEVTCVVIDVAEEDGEVKFNWYVDGVEVHNAKTKPREEQDNSTYRVVSVLTVLHQDWLNGKEYKCKVSNKALPRPIEKTISKAKGQPREPQVYTLPPSRDELTKNQVSLTCLVKGFYPSDIAVEWESNGQPENNYKTTPPVLDSDGSFFLYSKLTVDKSRWQQGNVFSCSVMHEALHNHYTQESLSLSP light: not shown",KD (IIaR)/KD (IIb),[2],38.3
same,KD (IIb) of parent polypeptide/KD (IIb) of altered polypeptide,[7],1020
